Data reported in US20140193434A1 (TORAY INDUSTRIES, published 2014).

T1: human CAPRIN-1 protein on the cell membrane surface of human cancer cell lines (human, UniProt Q14444 2-709)
T1 sequence (looked up): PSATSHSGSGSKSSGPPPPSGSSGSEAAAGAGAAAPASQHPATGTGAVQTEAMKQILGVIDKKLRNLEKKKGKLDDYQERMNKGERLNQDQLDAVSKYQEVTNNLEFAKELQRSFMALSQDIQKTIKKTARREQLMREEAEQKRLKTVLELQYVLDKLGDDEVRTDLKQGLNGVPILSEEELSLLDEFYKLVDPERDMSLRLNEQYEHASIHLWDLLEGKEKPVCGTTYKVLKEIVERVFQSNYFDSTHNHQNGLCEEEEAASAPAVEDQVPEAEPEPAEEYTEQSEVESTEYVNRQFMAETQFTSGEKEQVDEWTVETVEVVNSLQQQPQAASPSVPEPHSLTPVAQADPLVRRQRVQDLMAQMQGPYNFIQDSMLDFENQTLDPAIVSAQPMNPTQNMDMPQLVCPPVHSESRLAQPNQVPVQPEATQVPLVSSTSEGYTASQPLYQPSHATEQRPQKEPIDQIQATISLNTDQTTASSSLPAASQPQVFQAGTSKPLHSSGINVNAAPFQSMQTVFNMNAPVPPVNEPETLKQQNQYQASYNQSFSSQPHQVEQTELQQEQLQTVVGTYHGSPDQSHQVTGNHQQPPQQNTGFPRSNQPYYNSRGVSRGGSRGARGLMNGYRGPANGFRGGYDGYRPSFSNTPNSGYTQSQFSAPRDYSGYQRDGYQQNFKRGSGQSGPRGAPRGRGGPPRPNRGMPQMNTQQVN

B1: human-mouse chimeric comparative monoclonal antibody 7 (antibody, human IgG1, kappa, V domains shown)
VH: LQESGAELARPGASVKLSCKASGYTFTSYWMQWVKQRPGQGLEWIGAIYPGDGDTRYTQKFKGKATLTADKSSSTAYMQLSSLASEDSAVYYCARGEYGNYFAYWGQGTTVTVSS
VL: TSDASLGERVTITCKASQDINSYLSWFQQKPGKSPKTLIYRANRLVDGVPSRFSGSGSGQDYSLTISSLEYEDMGIYYCLQYDEFPLTFGGGTKLEIKQ
B2: human-mouse chimeric comparative monoclonal antibody 4 (antibody, human IgG1, kappa, V domains shown)
VH: EVQLHQFGAELVKPGASVKISCKASGYTFTDYNMDWVKQSHGKSLEWIGDINPNYDSTSYNQKFKGKATLTVDKSSSTAYMELRSLTSEDTAVYYCARSRSYDYEGFAYWGQGTLVTVSA
VL: SGDRVSLSCRASQSISNYLHWYQQKSHESPRLLIKYASQSISGIPSRFSGSGSGTDFTLSINSVETEDFGMYFCQQSNSWPYTFGAGTKLEIKQ
B3: human-mouse chimeric comparative monoclonal antibody 3 (antibody, human IgG1, kappa)
heavy: not shown
light: RTTSHMDSDIQLTQSPASLSASVGETVTITCRASGNIHNYLAWYQQKQGKSPQLLVYNAKTLADGVPSRFSGSGSGTQYSLKINSLQPEDFGSYYCQHFWSTLTFGGGTKLEIKQSDTVAAPSVFIFPPSDEQLKSGTASVVCLLNNFYPREAKVQWKVDNALQSGNSQESVTEQDSKDSTYSLSSTLTLSKADYEKHKVYACEVTHQGLSSPVTKSFNRGEC
B4: human-mouse chimeric comparative monoclonal antibody 1 (antibody)
heavy: not shown
light: DIQMTQSPASLSASVGETVTITCRASGNIHNYLAWYQQKQGKSPQLLVYNAKTLADGVPSRFSGSGSGTQYSLKINSLQPEDFGSYYCQHFWSTLTFGAGTKLELKRTVAAPSVFIFPPSDEQLKSGTASVVCLLNNFYPREAKVQWKVDNALQSGNSQESVTEQDSKDSTYSLSSTLTLSKADYEKHKVYACEVTHQGLSSPVTKSFNRGEC

Molecular target: T1, human CAPRIN-1 protein on the cell …
Test: cell-based or functional assay

Binder	cytotoxic activity (ADCC, chromium 51 release) against MCF7, HCT-116, MIAPaCa-2, Caki-2 and QG56
B1	< 5%
B2	< 5%
B3	< 5%
B4	< 5%
